Laboratory results as given in PMC6642148.

Target: RAS-binding domain (RBD) of RAF1, RAF1-RBD (52–131) (Homo sapiens) (UniProt P04049)
Test: ITC; GMPPNP-bound KRAS
Conditions: domain or fragment

Work on “KRAS (2–169), GMPPNP-bound (from UniProt P01116-2 2-169)” yielded a Kd of 217 nM.
